Residue numbers refer to the chain shown, from its start.
B1: Mutation 1 (antibody, V domains shown)
VH: EVQLQQSGAELVKPGASVKLSCTASGFNLKDYFMHWMKQRTEQGLDWIGRIDPEDAETRYAPEFQGKATITADTSSNTAYLQLSTLTSEDTAVYYCARYYSSYIPFVYWGQGTLVTASA
VL: DVVMTQTPLSLSVSLGDQASISCRSSQSIIYSNRHTYLHWYLQKPGQSPKLLIFQISNRFSGVPDRFSGSGSGTDFTLKINRVEAEDLGVYFCSQSTHLPFTFGSGTKLEIKR
notes: No residue numbers are printed, so each chain is built as FR1-CDR1-FR2-CDR2-FR3-CDR3-FR4-constant
B2: Mutation 5 (antibody, V domains shown)
VH: B1 VH with D52E
VL: B1 VL with R34K, N58Q, Q95N
notes: built as for Mutation 1
B3: Mutation 4 (antibody, V domains shown)
VH: B1 VH with D52E
VL: B1 VL with R34K, Q95N
notes: built as for Mutation 1
B4: Mutation 2 (antibody, V domains shown)
VH: B1 VH with D31E, S101T
VL: B1 VL
notes: built as for Mutation 1
B5: Mutation 3 (antibody, V domains shown)
VH: B1 VH with D31E, S101T
VL: B1 VL with N58Q
notes: built as for Mutation 1

The binders below were run against T1, CTNI quality control recombinant protein (PK2-CTNI-1, 170120, produced by the applicant) (human, UniProt P19429 2-210, limits assumed) (assay: AMC sensor kinetics, antibody captured, cTnI analyte).
T1 construct: also called cardiac troponin I
T1 sequence (P19429 2-210 limits assumed): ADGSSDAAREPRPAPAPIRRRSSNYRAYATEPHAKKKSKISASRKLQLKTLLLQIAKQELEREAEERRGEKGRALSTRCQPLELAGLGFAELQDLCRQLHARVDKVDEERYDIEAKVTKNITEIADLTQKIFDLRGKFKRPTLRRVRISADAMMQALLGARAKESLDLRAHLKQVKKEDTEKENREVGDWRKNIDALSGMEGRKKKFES
Experimental: Using the AMC sensor, the purified antibody was diluted with PBST to 10 μg/ml, and the CTNI quality control recombinant protein (PK2-CTNI-1, 170120, produced by the applicant) was serially diluted with PBST to 400 nmol/ml, 200 nmol/ml, 100 nmol/ml, 50 nmol/ml, 25 nmol/ml, 12.5 nmol/ml, 6.25 nmol/ml, and 0 nmol/ml.

B1 was tested, and the Kd was 0.751 nM.

In the case of B1, the koff is reported as 0.000155 s⁻¹.

Work on B1 yielded a kon of 206000 M⁻¹ s⁻¹.

These binders were tested against T1, CTNI quality control recombinant … (assay: indirect ELISA, cTnI coated 1 ug/ml, antibody 8 ug/ml).
Experimental: (§1) The cTnI quality control after diluted to 1 μg/ml with the coating solution was used for microplate coating at 100 uL per well and left at 4° C. overnight. The next day, the microplate was washed twice with the wash solution and tapped for drying. The blocking solution (20% BSA+80% PBS) was added at 120 μL per well and left for 1 h at 37° C., and the microplate was tapped for drying. The diluted cTn monoclonal antibody was added at 100 μL per well and left for 30 min at 37° C.; then the microplate was washed 5 times with the wash solution and tapped for drying. The goat anti-mouse IgG-HRP was added at 100 μL per well and left for 30 min at 37° C.; then the microplate was washed 5 times with the wash solution and tapped for drying. Colour-developing solution A was added at 50 μL per well, followed by colour-developing solution B at 50 μL per well; the mixed solution was left for 10 min; and stopping solution was added at 50 μL per well. The OD value was read out at 450 nm (reference at 630 nm) on the microplate reader.

Point of comparison: B4, “OD 450 nm (reference 630 nm)” value 1.8 OD. Against it:
- B1 — higher, 2.07 OD
- B2 — lower, 1.69 OD
- B3 — lower, 1.75 OD
- B5 — higher, 1.86 OD

What follows are binders tested against T1, CTNI quality control recombinant … (assay: indirect ELISA, cTnI coated 1 ug/ml, antibody 40 ug/ml).
Experimental: as §1

Point of comparison: B4, “OD 450 nm (reference 630 nm)” value 2.3 OD. Against it:
- B1 — higher, 2.35 OD
- B2 — lower, 1.94 OD
- B3 — lower, 1.98 OD
- B5 — lower, 2.25 OD

Each binder was assayed against T1, CTNI quality control recombinant … (assay: indirect ELISA, cTnI coated 1 ug/ml, antibody 1.6 ug/ml).
Experimental: as §1

Point of comparison: B5, “OD 450 nm (reference 630 nm)” value 0.831 OD. Against it:
- B1 — higher, 0.973 OD
- B2 — lower, 0.721 OD
- B3 — lower, 0.689 OD
- B4 — lower, 0.724 OD

These binders were tested against T1, CTNI quality control recombinant … (assay: indirect ELISA, cTnI coated 1 ug/ml, antibody 200 ug/ml).
Experimental: as §1

Point of comparison: B4, “OD 450 nm (reference 630 nm)” value 2.42 OD. Against it:
- B1 — lower, 2.4 OD
- B2 — lower, 2.2 OD
- B3 — lower, 2.15 OD
- B5 — lower, 2.37 OD

What follows are binders tested against T1, CTNI quality control recombinant … (assay: indirect ELISA, cTnI coated 1 ug/ml, antibody 0.32 ug/ml).
Experimental: as §1

Point of comparison: B4, “OD 450 nm (reference 630 nm)” value 0.233 OD. Against it:
- B1 — higher, 0.341 OD
- B2 — lower, 0.189 OD
- B3 — higher, 0.314 OD
- B5 — higher, 0.301 OD

What follows are binders tested against T1, CTNI quality control recombinant … (assay: indirect ELISA, cTnI coated 1 ug/ml, antibody 1000 ug/ml).
Experimental: as §1

Point of comparison: B1, “OD 450 nm (reference 630 nm)” value 2.4 OD. Against it:
- B2 — lower, 2.2 OD
- B3 — lower, 2.22 OD
- B4 — lower, 2.38 OD
- B5 — lower, 2.35 OD

These binders were tested against T1, CTNI quality control recombinant … (assay: indirect ELISA, cTnI coated 1 ug/ml, antibody 0 ug/ml (blank)).
Experimental: as §1

Point of comparison: B3, “OD 450 nm (reference 630 nm)” value 0.03 OD. Against it:
- B1 — higher, 0.032 OD
- B2 — higher, 0.042 OD
- B4 — higher, 0.04 OD
- B5 — lower, 0.028 OD

Source: patent publication US20210340231A1 (FAPON BIOTECH, published 2021)
